This note sets out measurements from patent US20040018971A1 (published 2004).

B1: Her2/neu.63 (peptide)
peptide: TYLPTNASL
notes: HER2/neu peptide, 9-mer
B2: Her2/neu.63.F9 (peptide)
peptide: TYLPTNASF
notes: HER2/neu analog peptide
B3: Her2/neu.8 (peptide)
peptide: RWGLLLAL
notes: HER2/neu peptide, 8-mer; also called RWGLLLAL
B4: Her2/neu.342.F9 (peptide)
peptide: CYGLGMEHF
notes: HER2/neu analog peptide
B5: HER2/neu peptide, position 546, 10 amino acids (peptide)
peptide: VLQGLPREYV
notes: Synthetic peptide
B6: HER2/neu peptide, position 665, 10 amino acids (peptide)
peptide: VVLGVVFGIL
notes: Synthetic peptide; also called HER2/neu 665-674
B7: HER2/neu peptide, position 452, 10 amino acids (peptide)
peptide: WLGLRSLREL
notes: Synthetic peptide; also called HER2/neu 452-461
B8: HER2/neu peptide, position 402, 9 amino acids (peptide)
peptide: TLEEITGYL
notes: Synthetic peptide; also called HER2/neu 402-410
B9: HER2/neu peptide, position 725, 10 amino acids (peptide)
peptide: VLGSGAFGTV
notes: Synthetic peptide; also called HER2/neu 725-734
B10: HER2/neu peptide, position 303, 10 amino acids (peptide)
peptide: YLSTDVGSCT
notes: Synthetic peptide
B11: HER2/neu peptide, position 658, 10 amino acids (peptide)
peptide: VVGILLVVVL
notes: Synthetic peptide
B12: HER2/neu peptide, position 658, 9 amino acids (peptide)
peptide: VVGILLVVV
notes: Synthetic peptide
B13: HER2/neu peptide, position 1172, 10 amino acids (peptide)
peptide: TLSPGKNGVV
notes: Synthetic peptide; also called HER2/neu 1172-1181
B14: HER2/neu peptide, position 664, 10 amino acids (peptide)
peptide: VVVLGVVFGI
notes: Synthetic peptide
B15: HER2/neu peptide, position 1196, 9 amino acids (peptide)
peptide: YLTPQGGAA
notes: Synthetic peptide; also called HER2/neu 1196-1204
B16: HER2/neu peptide, position 666, 9 amino acids (peptide)
peptide: VLGVVFGIL
notes: Synthetic peptide; also called HER2/neu 666-674
B17: HER2/neu peptide, position 411, 9 amino acids (peptide)
peptide: YISAWPDSL
notes: Synthetic peptide
B18: HER2/neu peptide, position 960, 9 amino acids (peptide)
peptide: MIDSECRPR
notes: Synthetic peptide; also called Her2/neu.960 (9-mer)
B19: HER2/neu peptide, position 360, 9 amino acids (peptide)
peptide: NIQEFAGCK
notes: Synthetic peptide; also called Her2/neu.360 (9-mer)
B20: HER2/neu peptide, position 154, 10 amino acids (peptide)
peptide: LIQRNPQLCY
notes: Synthetic peptide; also called Her2/neu.154 (10-mer)
B21: HER2/neu peptide, position 360, 10 amino acids (peptide)
peptide: NIQEFAGCKK
notes: Synthetic peptide; also called Her2/neu.360 (10-mer)
B22: HER2/neu peptide, position 889, 10 amino acids (peptide)
peptide: MALESILRRR
notes: Synthetic peptide
B23: HER2/neu peptide, position 1014, 10 amino acids (peptide)
peptide: MGDLVDAEEY
notes: Synthetic peptide; also called Her2/neu.1014 (10-mer)
B24: HER2/neu peptide, position 181, 10 amino acids (peptide)
peptide: LTLIDTNRSR
notes: Synthetic peptide; also called Her2/neu.181 (10-mer)
B25: HER2/neu peptide, position 726, 10 amino acids (peptide)
peptide: LGSGAFGTVY
notes: Synthetic peptide; also called Her2/neu.726 (10-mer)
B26: HER2/neu peptide, position 745, 9 amino acids (peptide)
peptide: NVKIPVAIK
notes: Synthetic peptide; also called Her2/neu.745 (9-mer)
B27: HER2/neu peptide, position 915, 9 amino acids (peptide)
peptide: LMTFGAKPY
notes: Synthetic peptide; also called Her2/neu.915 (9-mer)
B28: HER2/neu peptide, position 841, 9 amino acids (peptide)
peptide: LVHRDLAAR
notes: Synthetic peptide; also called Her2/neu.841 (9-mer)
B29: HER2/neu peptide, position 674, 10 amino acids (peptide)
peptide: LIKRRQQKIR
notes: Synthetic peptide; also called Her2/neu.674 (10-mer)
B30: HER2/neu peptide, position 822, 10 amino acids (peptide)
peptide: LLNWCMQIAK
notes: Synthetic peptide
B31: HER2/neu peptide, position 681, 8 amino acids (peptide)
peptide: KIRKYTMR
notes: Synthetic peptide
B32: HER2/neu peptide, position 167, 9 amino acids (peptide)
peptide: ILWKDIFHK
notes: Synthetic peptide; also called Her2/neu.167
B33: HER2/neu peptide, position 509, 9 amino acids (peptide)
peptide: LACHQLCAR
notes: Synthetic peptide
B34: HER2/neu peptide, position 632, 9 amino acids (peptide)
peptide: HSCVDLDDK
notes: Synthetic peptide
B35: HER2/neu peptide, position 42, 9 amino acids (peptide)
peptide: HLDMLRHLY
notes: Synthetic peptide; also called Her2/neu.42
B36: HER2/neu peptide, position 673, 9 amino acids (peptide)
peptide: ILIKRRQQK
notes: T0001 prints T at residue 673 (FGTLIK)
B37: HER2/neu peptide, position 753, 10 amino acids (peptide)
peptide: KVLRENTSPK
notes: Synthetic peptide
B38: HER2/neu peptide, position 179, 10 amino acids (peptide)
peptide: LALTLIDTNR
notes: Synthetic peptide
B39: HER2/neu peptide, position 747, 10 amino acids (peptide)
peptide: KIPVAIKVLR
notes: Synthetic peptide
B40: HER2/neu peptide, position 714, 9 amino acids (peptide)
peptide: ILKETELRK
notes: Synthetic peptide
B41: HER2/neu peptide, position 478, 10 amino acids (peptide)
peptide: HTVPWDQLFR
notes: Synthetic peptide; also called Her2/neu.478
B42: HER2/neu peptide, position 161, 10 amino acids (peptide)
peptide: LCYQDTILWK
notes: Synthetic peptide
B43: HER2/neu peptide, position 914, 10 amino acids (peptide)
peptide: ELMTFGAKPY
B44: HER2/neu peptide, position 772, 10 amino acids (peptide)
peptide: YVMAGVGSPY
B45: HER2/neu peptide, position 1013, 11 amino acids (peptide)
peptide: DMGDLVDAEEY
B46: HER2/neu peptide, position 401, 11 amino acids (peptide)
peptide: ETLEEITGYLY
notes: also called Her2/neu.401
B47: HER2/neu peptide, position 40, 11 amino acids (peptide)
peptide: ETHLDMLRHLY
notes: also called Her2/neu.40
B48: HER2/neu peptide, position 868, 10 amino acids (peptide)
peptide: RLLDIDETEY
B49: HER2/neu peptide, position 334, 10 amino acids (peptide)
peptide: CSKPCARVCY
B50: HER2/neu peptide, position 55, 10 amino acids (peptide)
peptide: VVQGNLELTY
B51: HER2/neu peptide, position 601, 10 amino acids (peptide)
peptide: PSGVKPDLSY
B52: HER2/neu peptide, position 1130, 10 amino acids (peptide)
peptide: PLTCSPQPEY
B53: HER2/neu peptide, position 1102, 11 amino acids (peptide)
peptide: PTHDPSPLQRY
notes: H is used here
B54: HER2/neu peptide, position 545, 10 amino acids (peptide)
peptide: RVLQGLPREY
B55: Her2/neu.1157.F1I11 (peptide)
peptide: FPAARPAGATI
notes: 11-mer analog of the HER2/neu peptide starting at position 1157

One assay deals with HLA-A*2402 (human). Briefly: inhibition of 125I-labeled probe peptide binding to purified HLA-A*2402, gel filtration. Background: In gel filtration, larger molecules generally elute earlier.
For B1, the IC50 (in general, the concentration that gives 50% inhibition) came to 316 nM.
Same read-out and setting: then B2, with 44 nM; and B3, with 480 nM.
Molecule B4 showed an IC50 of 164 nM.

In a further assay the target is T1, HLA-A*0201 (human).
T1 construct: also called HLA-A2.1
The assay is described as follows: inhibition of 125I-labelled probe peptide binding to purified HLA, gel filtration.
For B5, the relative binding ratio was 0.0009 ratio (IC50 of standard peptide / IC50 of test peptide).
Still for that read-out and setting: in the case of B6 it was 0.0027 ratio (IC50 of standard peptide / IC50 of test peptide); in that of B7, 0.0001 ratio (IC50 of standard peptide / IC50 of test peptide).
For the molecule B8, the relative binding ratio is 0.0018 ratio (IC50 of standard peptide / IC50 of test peptide).
The same measure, in the same setting: then B9, with 0.0007 ratio (IC50 of standard peptide / IC50 of test peptide).
In the case of B10, the relative binding ratio was 0.0002 ratio (IC50 of standard peptide / IC50 of test peptide).
On the same count and under the same terms, then B11, with 0.0009 ratio (IC50 of standard peptide / IC50 of test peptide); and B12, with 0.0005 ratio (IC50 of standard peptide / IC50 of test peptide).
Take B13: the relative binding ratio is 0.0001 ratio (IC50 of standard peptide / IC50 of test peptide).
Regarding B14, the relative binding ratio was 0.0032 ratio (IC50 of standard peptide / IC50 of test peptide).
On the same count and under the same terms, in the case of B15 it was 0.0001 ratio (IC50 of standard peptide / IC50 of test peptide).
Still for that read-out and setting: in the case of B16 it was 0.0005 ratio (IC50 of standard peptide / IC50 of test peptide); in that of B17, 0.0003 ratio (IC50 of standard peptide / IC50 of test peptide).

The target of another assay is T2, HLA-A*0301 (human).
T2 construct: also called HLA-A3
Briefly: inhibition of 125I-labelled probe peptide binding to purified HLA-A*0301, gel filtration; ratio to standard peptide 941.12 [..] (11 nM).
Regarding B18, the “relative binding ratio (IC50 of standard peptide / IC50 of test peptide)” value came to 0.0017.
Same read-out and setting: then B19, with 0.0002.
The same measure, in the same setting: in the case of B20 it was 0.0012; in that of B21, 0.0003; in that of B22, 0.0011.
Same read-out and setting: then B23, with 0.0002.
Regarding B24, the “relative binding ratio (IC50 of standard peptide / IC50 of test peptide)” value is 0.0002.
Turning to B25, the “relative binding ratio (IC50 of standard peptide / IC50 of test peptide)” value was 0.0003.
On the same count and under the same terms, in the case of B26 it was 0.0058; in that of B27, 0.0002; in that of B28, 0.004.
Still for that read-out and setting: then B29, with 0.0002; and B30, with 0.14.

The next assay deals with T3, HLA-A*0301 (human).
T3 construct: also called HLA-A3
Briefly: competitive inhibition of 125I-labelled standard peptide binding to purified HLA-A*0301, gel filtration; standard 941.12 [..] (11 nM).
As to B31, the “relative binding ratio (IC50 of standard peptide / IC50 of test peptide)” value is 0.001 ratio.
On the same count and under the same terms, then B32, with 0.28 ratio; and B33, with -0.0002 ratio.
The same measure, in the same setting: then B34, with -0.0002 ratio; and B35, with 0.037 ratio; and B36, with 0.38 ratio.
Same read-out and setting: then B37, with 0.38 ratio; and B38, with -0.0002 ratio.
For B39, the “relative binding ratio (IC50 of standard peptide / IC50 of test peptide)” value is 0.0009 ratio.
The same measure, in the same setting: in the case of B40 it was 0.019 ratio.
Same read-out and setting: then B41, with 0.0035 ratio; and B42, with 0.0081 ratio.

Another assay concerns the target T4, HLA-A*0101 (purified HLA class I molecule) (human).
T4 construct: also called HLA-A1
The assay is described as follows: competition with 125I-labelled standard peptide on purified HLA-A*0101, gel filtration.
With B43, the “relative binding ratio (IC50 of standard peptide / IC50 of test peptide)” value is 0.0082 ratio.
The same measure, in the same setting: then B44, with 1.1 ratio; and B45, with 0.0027 ratio.
Same read-out and setting: in the case of B46 it was 0.44 ratio.
On the same count and under the same terms, then B47, with 0.28 ratio; and B48, with 1.3 ratio.
Regarding B49, the “relative binding ratio (IC50 of standard peptide / IC50 of test peptide)” value is 0.0016 ratio.
Same read-out and setting: then B50, with 0.018 ratio.
Same read-out and setting: in the case of B51 it was 0.001 ratio.
Consider B52, for which the “relative binding ratio (IC50 of standard peptide / IC50 of test peptide)” value was 0.0072 ratio.
The same measure, in the same setting: in the case of B53 it was 0.016 ratio.
The same measure, in the same setting: in the case of B54 it was 0.0015 ratio.

A further assay has as its target HLA-B*3501 (human). The assay is described as follows: competition vs 125I-labelled probe peptide, purified HLA, gel filtration.
Take B55: the IC50 amounted to 4.24 µM.

In the next assay the target is HLA-B*5401 (human). Described as above.
B55 gave a concentration for half-maximal inhibition (IC50) of 50 nM.

In another assay the target is HLA-B*5301 (human). The description is as above.
As for B55, the IC50 is 332 nM.

In a further assay the target is HLA-B*0702 (human). Described as above.
Consider B55, for which the IC50 was 39 nM.

Another assay has as its target HLA-B*5101 (human). Described as above.
As to B55, the IC50 turned out to be 13 nM.
